Data: patent CN115197317A (ANYUAN PHARMACEUTICAL TECH SHANGHAI CO LTD, dated 2022)

Legend:
刺突S-鼠Fc融合蛋白 (S-mFc) = 刺突S-鼠Fc融合蛋白 (S-mFc) (SARS-CoV-2; mouse, UniProt P0DTC2 14-1213)
[1] = molecular target: T1, SARS-CoV-2 S蛋白 (ACRO Biosystems, coated in ELISA 7.1) (SARS-CoV-2, UniProt P0DTC2 16-1213); assay: indirect ELISA, S protein coated at 0.1 μg/mL
T1 construct: also called SARS-CoV S蛋白(ACRO Biosystems)

SARS-CoV-2 S蛋白(His标签) = SARS-CoV-2 S蛋白(His标签) (SARS-CoV-2, UniProt P0DTC2 16-1213); assay: competition ELISA, S protein (His tag) coated, HRP-hACE2-Fc as competitor

Binder | IC50 (刺突S-鼠Fc融合蛋白 (S-mFc)) [µg/mL] | EC50 [1] [ng/mL] | IC50 (SARS-CoV-2 S蛋白(His标签)) [µg/mL]
鼠源抗体ST-10-4 (antibody, V domains shown) VH: QVTLKESGPGILQPSQTLTLTCSFSGFSLDSSNMGVSWIRQTSGKGLEWLAHIYWGDDNRYNPSLKSRLTVSKDTSSNQVFLKLTNVDTADTATYYCARKWNWDWFPYWGQGTLVTVSA VL: DIVLTQSPTSLPVSLGQRATISCRASKSVSASGYSFMHWYQQKPGQPPKLLISLASNLESGVPARFSGSGSGTDFTLNIHPVEEEDAATYYCQHSRELPLTFGAGTKLELK | 0.0165 | – | –
人源化抗体hST-10-4 (antibody, V domains shown) VH: EVTLKESGPALVKPTQTLTLTCTFSGFSLDSSNMGVSWIRQPPGKGLEWLAHIYWGDDNRYNPSLKSRLTVSKDTSKNQVVLTMTNMEPVDTATYYCARKWNWDWFPYWGQGTTVTVSS VL: DIVLTQSPDSLAVSLGERATINCRASKSVSASGYSFMHWYQQKPGQPPKLLISLASNLESGVPARFSGSGSGTDFTLTISRLQAEDVAVYYCQHSRELPLTFGAGTKLEIKR | 0.0123 | 2.3 | 0.257
鼠源抗体ST-35-4 (antibody, V domains shown) VH: QVQLQQPGAELVRPGASMKLSCKTSGYTFTTYTIHWIKQTPGQGLEWIGAVNPGNGDTSYSQKFKGRAILTADKSSNTASMQFSSLTSEDSAVYYCARDGYPYFYALDSWGQGTSVTVSS VL: DIQMTQSPSSLSASLGERVSLTCRAGQEISSYLTWLQQKPDGTIKRLIYAASTLDSGVPKRFSGSRSGSDYSLTINSLESEDFADYYCLQYASYPWTFGGGTKVEIK | 0.0118 | – | –
人源化抗体hST-35-4 (antibody, V domains shown) VH: EVQLVQSGAEVKKPGSSVKVSCKTSGYTFTTYTIHWIRQAPGQGLEWIGAVNPGNADTSYSQKFKGRATLTADKSSNTAYMELSSLRSEDTAVYYCARDAYPYFYALDSWGQGTTVTVSS VL: DIQMTQSPSSLSASVGDRVTITCRAGQEISSYLTWLQQKPEGTIKRLIYAASTLDSGVPKRFSGSRSGSDYTLTISSLQPEDFATYYCLQYASYPWTFGGGTKVEIKR | 0.0163 | 1.8 | 0.194
